Reference: patent US20240101654A1

Target: recombinant full-length human Tau (Tau-441, (2N4R)) (human) (UniProt P10636)
Assay: indirect ELISA, plate coated with recombinant full-length human Tau at 3 µg/ml

B1: NI-502.4P3 (antibody, V domains shown)
VH: EVQLVQSGAEVKKPGESLKISCKVSGYDFSKYWIGWVRQMPGKGLEWMGLIYPGDSDTRYSPSLEGQVSISADKSISAAYLQFSSLKASDSAMYYCVRKGYSAYLGGWFDPWGQGTLVTVSS
VL: DIQLTQSPDSLAASLGERVTINCRSSQNIFYNSNNKNFLAWYQQKAGQSPKLLIYWASTRESGVPDRFSGSGSGTDFTLTISGLQAGDVAVYFCQQYFTDAPTFGGGTKVEIK
EC50: 15 nM
